Measurements published in patent US20140120109A1 (Regeneron, published 2014).

T1: human DR3, full-length, expressed on HEK293 NFkB-luciferase reporter cells (human, UniProt Q93038 25-417)
T1 sequence: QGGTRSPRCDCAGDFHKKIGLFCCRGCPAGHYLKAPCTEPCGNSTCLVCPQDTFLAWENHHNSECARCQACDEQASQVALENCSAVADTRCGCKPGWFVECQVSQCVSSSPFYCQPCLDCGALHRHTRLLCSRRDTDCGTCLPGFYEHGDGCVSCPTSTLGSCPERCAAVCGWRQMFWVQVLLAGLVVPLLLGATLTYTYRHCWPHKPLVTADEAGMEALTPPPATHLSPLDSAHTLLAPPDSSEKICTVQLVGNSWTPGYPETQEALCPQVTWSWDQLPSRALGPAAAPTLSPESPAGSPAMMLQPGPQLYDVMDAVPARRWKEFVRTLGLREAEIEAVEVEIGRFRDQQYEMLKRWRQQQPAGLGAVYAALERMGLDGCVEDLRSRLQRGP

T2: Fhm, hTL1A(Q167R), soluble, E. coli-expressed, residues 72-251 of SEQ ID NO:246 (human, UniProt O95150 72-251)
T2 construct: with or without N-terminal Met
T2 chain: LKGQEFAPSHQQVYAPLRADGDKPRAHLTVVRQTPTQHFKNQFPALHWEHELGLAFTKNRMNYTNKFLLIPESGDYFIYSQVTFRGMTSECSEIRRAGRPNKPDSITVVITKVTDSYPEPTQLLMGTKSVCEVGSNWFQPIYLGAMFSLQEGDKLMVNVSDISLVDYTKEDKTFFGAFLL

B1: cynomolgus monkey TL1A, soluble, E. coli-expressed, residues 72-251 of SEQ ID NO:248 (ligand)
chain: LKGQEFAPSHQQVYAPLRADGDKPRAHLTVVRQTPTQHLKNQFPALHWEHELGLAFTKNRMNYTNKFLLIPESGDYFVYSQVTFRGMTSECSEIRQAGRPNKPDSITVVITKVTDSYPEPTQLLMGTKSVCEVGSNWFQPIYLGAMFSLQEGDKLMVNVSDISLVDYTKEDKTFFGAFLL
B2: mouse TL1A, soluble, E. coli-expressed, residues 76-252 of SEQ ID NO:250 (ligand)
chain: ITEERSEPSPQQVYSPPRGKPRAHLTIKKQTPAPHLKNQLSALHWEHDLGMAFTKNGMKYINKSLVIPESGDYFIYSQITFRGTTSVCGDISRGRRPNKPDSITMVITKVADSYPEPARLLTGSKSVCEISNNWFQSLYLGATFSLEEGDRLMVNVSDISLVDYTKEDKTFFGAFLL

Tests used:
[1] = molecular target: T1, human DR3, full-length, expressed on …; experiment: cell-based or functional assay
[2] = molecular target: T2, Fhm, hTL1A(Q167R), soluble, E. …; experiment: SPR 25C, mAb captured
Method: (§1) Measurements were conducted on a T100 BIACORE™ instrument. […] Kinetic association (kₐ) and dissociation (kd) rate constants were determined by fitting the data to a 1:1 binding model using BIAevaluation 4.1 curve fitting software (BIAcore Life Sciences). Molar concentrations of TL1A/Fhm used in the data fitting assumed a monomeric state for TL1A in solution. Binding dissociation equilibrium constants (KD) and dissociative half-lives (t_{1/2}) were calculated from the kinetic rate constants as: KD (M)=kd/kₐ; and t_{1/2} (min)=[In2/(60*kd)].

[3] = molecular target: B1; experiment: SPR 25C, mAb captured
Method: as §1

[4] = molecular target: B1; experiment: SPR 37C, mAb captured
Method: as §1

[5] = molecular target: B2; experiment: SPR 25C, steady state
Method: as §1, with “Binding dissociation equilibrium constants (KD) and dissociative half-lives (t_{1/2}) were calculated from the kinetic rate constants as: KD (M)=kd/kₐ; and t_{1/2} (min)=[In2/(60*kd)].” left out

Row | EC50, NFkB-luciferase reporter [1] | Binder | other results
1 | 0.12 nM | human TL1A, soluble, E. coli-expressed, residues 72-251 of SEQ ID NO:244 (ligand) LKGQEFAPSHQQVYAPLRADGDKPRAHLTVVRQTPTQHFKNQFPALHWEHELGLAFTKNRMNYTNKFLLIPESGDYFIYSQVTFRGMTSECSEIRQAGRPNKPDSITVVITKVTDSYPEPTQLLMGTKSVCEVGSNWFQPIYLGAMFSLQEGDKLMVNVSDISLVDYTKEDKTFFGAFLL | 
2 | 2.02 nM | B1 | 
3 |  | H2M1704N (antibody, V domains shown, chimeric hybridoma antibody: human variable regions, mouse constant regions (mouse Fc)) VH: EVQLVESGGGLVQPGGSLRLSCAVSGFTFSSYWMSWVRQAPGKGLEWVANIKEDGSEKNYVDSVKGRFTLSSDNAKNSLYLQMNSLRAEDTAVYYCAREDYDSYYKYGMDVWGQGTAVIVSS VL: not shown | Kd [2]: 0.282 nM; t1/2 [2]: 52 min; Kd [3]: 0.285 nM; t1/2 [3]: 57 min; Kd [4]: 0.751 nM; t1/2 [4]: 16 min; Kd [5]: 127 nM
4 | 0.08 nM | mouse TL1A, soluble, CHO-expressed, residues 76-252 of SEQ ID NO:250 with N-terminal His6-tag (ligand) HHHHHHITEERSEPSPQQVYSPPRGKPRAHLTIKKQTPAPHLKNQLSALHWEHDLGMAFTKNGMKYINKSLVIPESGDYFIYSQITFRGTTSVCGDISRGRRPNKPDSITMVITKVADSYPEPARLLTGSKSVCEISNNWFQSLYLGATFSLEEGDRLMVNVSDISLVDYTKEDKTFFGAFLL | 
5 | 0.01 nM | B2 | 
6 | 0.06 nM | rat TL1A, soluble, CHO-expressed, residues 76-252 of SEQ ID NO:258 with N-terminal His6-tag (ligand) HHHHHHVTEERSAPSAQPVYTPSRDKPKAHLTIMRQTPVPHLKNELAALHWENNLGMAFTKNRMNYTNKFLVIPESGDYFIYSQITFRGTTSECGDISRVRRPKKPDSITVVITKVADSYPEPAHLLTGTKSVCEISSNWFQPIYLGAMFSLEEGDRLMVNVSDISLVDYTKEDKTFFGAFLI | 
7 | 0.63 nM | human TL1A, soluble, CHO-expressed, residues 72-251 of SEQ ID NO:244 with N-terminal His6-tag (ligand) HHHHHHLKGQEFAPSHQQVYAPLRADGDKPRAHLTVVRQTPTQHFKNQFPALHWEHELGLAFTKNRMNYTNKFLLIPESGDYFIYSQVTFRGMTSECSEIRQAGRPNKPDSITVVITKVTDSYPEPTQLLMGTKSVCEVGSNWFQPIYLGAMFSLQEGDKLMVNVSDISLVDYTKEDKTFFGAFLL | 
8 | 0.32 nM | Fhm, hTL1A(Q167R), soluble, CHO-expressed, residues 72-251 of SEQ ID NO:246 (ligand) HHHHHHLKGQEFAPSHQQVYAPLRADGDKPRAHLTVVRQTPTQHFKNQFPALHWEHELGLAFTKNRMNYTNKFLLIPESGDYFIYSQVTFRGMTSECSEIRRAGRPNKPDSITVVITKVTDSYPEPTQLLMGTKSVCEVGSNWFQPIYLGAMFSLQEGDKLMVNVSDISLVDYTKEDKTFFGAFLL | 
9 | 0.86 nM | cynomolgus monkey TL1A, soluble, CHO-expressed, residues 72-251 of SEQ ID NO:248 with N-terminal His6-tag (ligand) HHHHHHLKGQEFAPSHQQVYAPLRADGDKPRAHLTVVRQTPTQHLKNQFPALHWEHELGLAFTKNRMNYTNKFLLIPESGDYFVYSQVTFRGMTSECSEIRQAGRPNKPDSITVVITKVTDSYPEPTQLLMGTKSVCEVGSNWFQPIYLGAMFSLQEGDKLMVNVSDISLVDYTKEDKTFFGAFLL | 
